Paper PMC7598594 (Toxins, 2020)

Experiments:
Experiment in all cases: ELISA
Conditions in all cases: both partners purified
[1] = molecular target: T1, carboxyl terminal domain of the BoNT/E heavy chain (HCE) (Clostridium botulinum, BoNT/E (subtype …))
[2] = molecular target: T2, light chain of BoNT/E1 (LC/E) (Clostridium botulinum, BoNT/E subtype …, UniProt Q00496)
T2 construct: source: E. coli BL21(DE3), purified (Ni-NTA, Streptactin, SEC)

[3] = molecular target: T2, light chain of BoNT/E1 (LC/E); remark: listed apart in the source
[4] = molecular target: T1, carboxyl terminal domain of the BoNT/E …; remark: listed apart in the source

T2 sequence (Q00496 2-403): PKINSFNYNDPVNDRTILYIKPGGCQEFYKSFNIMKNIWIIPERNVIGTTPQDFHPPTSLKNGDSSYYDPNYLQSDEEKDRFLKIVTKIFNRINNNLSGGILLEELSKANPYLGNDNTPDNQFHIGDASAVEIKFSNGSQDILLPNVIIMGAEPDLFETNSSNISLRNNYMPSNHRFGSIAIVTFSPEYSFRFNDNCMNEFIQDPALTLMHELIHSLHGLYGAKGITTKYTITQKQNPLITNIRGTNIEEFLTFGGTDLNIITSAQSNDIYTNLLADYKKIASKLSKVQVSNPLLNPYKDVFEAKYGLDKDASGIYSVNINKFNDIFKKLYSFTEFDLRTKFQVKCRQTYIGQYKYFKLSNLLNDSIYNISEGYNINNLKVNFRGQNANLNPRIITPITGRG

| Binder | binding result [3] | also measured |
| --- | --- | --- |
| JLE-G6 (VHH, source: E. coli, purified) VHH: QLQLVETGGGLVKPGGSLRLSCVVSGFTFDDYRMAWVRQAPGKELEWVSSIDSWSINTYYEDSVKGRFTISTDNAKNTLYLQMSSLKPEDTAVYYCAAEDRLGVPTINAHPSKYDYNYWGQGTQVTVSS | – | EC50 [1]: 3 nM |
| JLF-H5 (VHH, source: E. coli, purified) VHH: QVQLVESGGGSVQPGGSLRLSCVASGFTFTNYAMAWVRQVSGKGLEGVAAISSEGFIYIPDSVKGRFTISRDNAKNTVYLQMDNLQSEDTAIYHCAAVDWKRVAAMNSYNMDYWGKGTPVTVSA | – | EC50 [2]: 10 nM |
| JLG-G12 (VHH, source: E. coli, purified) VHH: QLQLVETGGGLVQAGGSLRLSCAASGRTFSSYAVGWFRQAPGKEREFVAAISWSGSYAYYADSVKGRFTISRDNAKNTVYLQMNSLKPEDTAVYYCNGDLEGYSNHETGDYWGQGTQVTVSS | – | EC50 [2]: 2 nM |
| JSI-F2 (VHH, source: E. coli, purified) VHH: SGGGLVQAGGSLRLSCAASGGTVSKYPMGWFRQAPGQEREFVAALSRDTDYTYYADSVKGRFTISRDNAKNTVYLQMNSLKREDTALYYCAAGSTDLKYSASVYADDYDYWGQGTQVTVSS | no binding (tested: 125 nM) | EC50 [4]: 2 nM |
| JSI-F6 (VHH, source: E. coli, purified) VHH: SGGGLVQAGGSLRVSCAASGRTFSTYAMGWFRQAPGKEREFVAAITKSGDYAYYADAVKGRFTISRDNAKNTVSLQMNSLKDEDTAVYYCAAHRSPLYSASVYDRDYDYWGQGTQVTVSS | no binding (tested: 125 nM) | EC50 [4]: 3 nM |
| JSI-A4 (VHH, source: E. coli, purified) VHH: SGGGLVQAGGSLRLSCAASGLTFSDTAVGWFRQAPGKEREFVAAAVIWSGVNTRYADSVRGRFTISRDSAKNTVYLQMNTLKPEDTAIYYCAAGRGAAAFPTDRSQYVYWGQGTQVTVSS | no binding (tested: 125 nM) | – |
| JSI-C7 (VHH, source: E. coli, purified) VHH: SGGGLMQAGGSLRLACAASGRPFSTYFMGWFRQAPGKERDFVAVIDWSDGSTDYADSVKGRFTISRDNAKNTVYLQMNSLKPEDTAVYYCAARGSYLYTWPLEPDEYDYWGQGTQVTVSS | no binding (tested: 125 nM) | – |
| JSI-G9 (VHH, source: E. coli, purified) VHH: SGGGMVQAGGSLRLSCAASGRTASLDGMGWFRQAPGKEREFVGSINWRIGTTYYIDSVQGRFTISRDNARNTVYLQMISLKPEDTAVYYCAARLRRTDLISSPASYEYWGHGTQVTVSS | no binding (tested: 125 nM) | – |
| JSI-H9 (VHH, source: E. coli, purified) VHH: SGGGSVQAGGSLGLTCQGSGDAVRRGWFRQAPGKEREFVAAITSYGGTTFYADSVKGRFTVSRDNAKNTVYLQMISLKPEDTAVYYCAAASRPTGWPYEYDVWGQGTQVTVSS | no binding (tested: 125 nM) | – |
